These results are taken from patent US20090136509A1, “Use of Toll-Like Receptor 4 Antagonists for the Treatment or Prevention of Osteoarthritic Conditions” (priority 2007, published 2009).

Assay [1] concerns the target T1, TLR4 (Homo sapiens, UniProt O00206+Q9Y6Y9).
T1 construct: alginate cultures of human chondrocytes from healthy volunteers were supplied by Articular Engineering, LLC; host or cells: primary human chondrocytes in alginate culture (healthy volunteers; osteoarthritis patients)
To be noted: positive control; stated as known; cited from earlier work.

The target in assay [2] is T1, TLR4. Nature of the assay: 35S incorporation into S-GAG in alginate cultures of human chondrocytes from healthy volunteers. Type of assay: cell-based. The protocol: For these experiments, alginate cultures of human chondrocytes from healthy volunteers were supplied by Articular Engineering, LLC (Northbrook, Ill.) and were maintained as directed by the supplier. “Control” chondrocytes were untreated. “LPS” treated chondrocytes were treated with LPS at a concentration of 1 μg/ml in the media for three days starting at Day 2. “LPS+polymixin B” treated chondrocytes were treated for 1 hour with the […] polymixin B, which is a TLR4 antagonist, at a concentration of 20 μg/ml followed by treatment with the TLR4 receptor agonist LPS at a concentration of 1 μg/ml in the media for three days starting at Day 2. “LPS+TLR4-ECD” treated chondrocytes were treated starting at Day 0 with the TLR4 antagonist TLR4-ECD at a concentration in the media of 50 μg/ml followed by treatment with LPS at a concentration of 1 μg/ml in the media for three days starting at Day 2. TLR4-ECD is a TLR4 receptor antagonist comprising the extracellular domain of hTLR4A and the Fc domain of an IgG1 isotype antibody. TLR4-ECD has the amino acid sequence shown in SEQ ID NO: 4 and is encoded by the cDNA having the nucleic acid sequence shown in SEQ ID NO: 3. […] On Day 5 alginate bead chondrocyte cell cultures were ^35S labelled overnight and ^35S incorporation into S-GAG (sulfated glycosaminoglycan) was then determined as described by Bobacz et al. 56 Arthritis. […]

In assay [3] the target is T1, TLR4. The assay can be described thus: 35S incorporation into S-GAG in alginate cultures of human chondrocytes from osteoarthritis patients. The format is cell-based. The protocol:
For these experiments, alginate cultures of human chondrocytes from healthy volunteers were supplied by Articular Engineering, LLC (Northbrook, Ill.) and were maintained as directed by the supplier. “Control” chondrocytes were untreated. “LPS” treated chondrocytes were treated with LPS at a concentration of 1 μg/ml in the media for three days starting at Day 2. “LPS+polymixin B” treated chondrocytes were treated for 1 hour with the […] polymixin B, which is a TLR4 antagonist, at a concentration of 20 μg/ml followed by treatment with the TLR4 receptor agonist LPS at a concentration of 1 μg/ml in the media for three days starting at Day 2. […] On Day 5 alginate bead chondrocyte cell cultures were ^35S labelled overnight and ^35S incorporation into S-GAG (sulfated glycosaminoglycan) was then determined as described by Bobacz et al. 56 Arthritis. […]
For these experiments, alginate cultures of human chondrocytes from osteoarthritis patients were supplied by Articular Engineering, LLC (Northbrook, Ill.) and were maintained as directed by the supplier. […] At Day 5 alginate bead chondrocyte cell cultures were ^35S labelled overnight and ^35S incorporation into S-GAG (sulfated glycosaminoglycan) was then determined as described by Bobacz et al. 56 Arthritis. […]

T1 sequence (O00206 24-839): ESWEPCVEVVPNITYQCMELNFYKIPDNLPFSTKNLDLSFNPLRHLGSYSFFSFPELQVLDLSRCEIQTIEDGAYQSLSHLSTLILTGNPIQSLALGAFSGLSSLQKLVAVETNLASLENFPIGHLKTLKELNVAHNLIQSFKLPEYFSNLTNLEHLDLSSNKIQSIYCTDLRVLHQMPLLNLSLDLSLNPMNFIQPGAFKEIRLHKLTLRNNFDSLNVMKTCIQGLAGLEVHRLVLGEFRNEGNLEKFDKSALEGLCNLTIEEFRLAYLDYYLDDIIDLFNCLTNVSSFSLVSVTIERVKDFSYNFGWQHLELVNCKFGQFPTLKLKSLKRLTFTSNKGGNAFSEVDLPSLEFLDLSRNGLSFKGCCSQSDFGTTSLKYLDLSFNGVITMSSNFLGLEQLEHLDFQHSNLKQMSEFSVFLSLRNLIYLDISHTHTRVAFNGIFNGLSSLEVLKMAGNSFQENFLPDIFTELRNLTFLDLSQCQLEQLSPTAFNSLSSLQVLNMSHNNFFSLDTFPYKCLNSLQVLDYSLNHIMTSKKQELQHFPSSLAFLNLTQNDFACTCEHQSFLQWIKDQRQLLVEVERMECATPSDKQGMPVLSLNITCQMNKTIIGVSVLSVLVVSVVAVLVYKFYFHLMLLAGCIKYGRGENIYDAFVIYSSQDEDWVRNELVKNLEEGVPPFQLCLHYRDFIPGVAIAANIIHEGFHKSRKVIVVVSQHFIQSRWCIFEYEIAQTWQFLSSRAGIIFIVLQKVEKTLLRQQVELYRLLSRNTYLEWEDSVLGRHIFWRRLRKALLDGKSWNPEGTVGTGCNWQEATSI
T1 sequence (Q9Y6Y9 17-160 limits assumed): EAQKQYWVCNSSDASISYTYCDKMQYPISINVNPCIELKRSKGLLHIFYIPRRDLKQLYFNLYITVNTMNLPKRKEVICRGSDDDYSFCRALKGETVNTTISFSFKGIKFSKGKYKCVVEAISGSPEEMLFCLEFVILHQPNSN

In the case of “IGF1: Insulin-like Growth Factor 1, used as a positive control”, the “sGAG synthesis by human chondrocytes” value in the assay with TLR4 [1] was “stimulate sGAG synthesis”.

As for “hTLR4-ECD: TLR4 receptor antagonist comprising the extracellular domain of hTLR4A and the Fc domain of an IgG1 isotype antibody; preparations contained approximately 25% MD2”, the S-GAG synthesis result is given as “increased S-GAG synthesis relative to chondrocytes treated with LPS alone” in the assay with TLR4 [2] (hTLR4-ECD 50 μg/ml from Day 0 + LPS 1 μg/ml from Day 2, relative to LPS alone (FIG. 18)); “increased S-GAG synthesis relative to chondrocytes treated with LPS alone” in the assay with TLR4 [2] (hTLR4-ECD alone 50 μg/ml from Day 0, relative to LPS alone (FIG. 18)); “increased S-GAG synthesis relative to chondrocytes from osteoarthritis patients treated with LPS alone” with TLR4 [3] (hTLR4-ECD 50 μg/ml from Day 0 + LPS 1 μg/ml from Day 2, relative to LPS alone (FIG. 19)); “increased S-GAG synthesis relative to chondrocytes from osteoarthritis patients treated with LPS alone” with TLR4 [3] (hTLR4-ECD alone 50 μg/ml from Day 0, relative to LPS alone (FIG. 19)).
